# In patent publication US20230416371A1 (Chugai, published 2023):
# Substitutions are numbered along the chain they refer to. Numbers in names are those of the source.
# B1: EGL-G1d (H240-G1d/L73-k0) (antibody, human IgG1, kappa)
# heavy: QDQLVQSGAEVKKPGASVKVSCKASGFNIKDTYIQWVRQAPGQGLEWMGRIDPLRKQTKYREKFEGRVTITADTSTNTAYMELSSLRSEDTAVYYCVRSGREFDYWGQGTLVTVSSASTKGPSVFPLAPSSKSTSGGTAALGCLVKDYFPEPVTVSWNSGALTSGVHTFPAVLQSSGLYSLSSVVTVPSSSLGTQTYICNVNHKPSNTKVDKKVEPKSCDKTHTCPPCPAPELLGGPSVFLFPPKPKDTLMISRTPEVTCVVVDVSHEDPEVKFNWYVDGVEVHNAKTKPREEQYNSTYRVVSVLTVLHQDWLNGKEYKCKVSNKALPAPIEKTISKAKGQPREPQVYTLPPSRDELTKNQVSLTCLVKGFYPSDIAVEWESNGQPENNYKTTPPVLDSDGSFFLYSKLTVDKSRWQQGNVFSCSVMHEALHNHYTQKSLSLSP
# light: DIQMTQSPSSLSASVGDRVTITCRASQDIHKYIAWYQQKPGQAPRLLIQYTSTLQPGVPSRFSGSGSGTDYTFTISSLQPEDIATYYCLQYEQLRTFGGGTKVEIKRTVAAPSVFIFPPSDEQLKSGTASVVCLLNNFYPREAKVQWKVDNALQSGNSQESVTEQDSKDSTYSLSSTLTLSKADYEKHKVYACEVTHQGLSSPVTKSFNRGEC
# notes: Anti-human Epiregulin antibody with human IgG1 constant region G1d (C-terminal Lys and Gly deleted); parent of all Fc variants; also called H240-Gld/L73-k0; anti-hEREG control antibody
# B2: EGL-SDALIE (H240-Kn032/L73-k0//H240-H1032/L73-k0) (antibody, human IgG1, kappa)
# heavy 1: QDQLVQSGAEVKKPGASVKVSCKASGFNIKDTYIQWVRQAPGQGLEWMGRIDPLRKQTKYREKFEGRVTITADTSTNTAYMELSSLRSEDTAVYYCVRSGREFDYWGQGTLVTVSSASTKGPSVFPLAPSSKSTSGGTAALGCLVKDYFPEPVTVSWNSGALTSGVHTFPAVLQSSGLYSLSSVVTVPSSSLGTQTYICNVNHKPSNTKVDKKVEPKSCDKTHTCPPCPAPELLGGPDVFLFPPKPKDTLMISRTPEVTCVVVDVSHEDPEVKFNWYVDGVEVHNAKTKPREEQYNSTYRVVSVLTVLHQDWLNGKEYKCKVSNKALPLPEEKTISKAKGQPREPQVCTLPPSRDELTKNQVSLWCLVKGFYPSDIAVEWESNGQPENNYKTTPPVLDSDGSFFLYSKLTVDKSRWQQGNVFSCSVMHEALHNHYTQKSLSLSP
# heavy 2: B2 heavy 1 with C348Y, D355C, W365S, L367A, Y406V
# light: B1 light
# notes: Anti-human Epiregulin IgG1 with S239D/A330L/I332E in both CH2 domains and knobs-into-holes in CH3
# B3: EGL-ART10 (H240-Kn494/L73-k0//H240-HI514/L73-k0) (antibody, human IgG1, kappa)
# heavy 1: B2 heavy 1 with L233F, L234Q, G235W, D238M, T249V, H267D, D269E, S297A, T306P, L329A
# heavy 2: QDQLVQSGAEVKKPGASVKVSCKASGFNIKDTYIQWVRQAPGQGLEWMGRIDPLRKQTKYREKFEGRVTITADTSTNTAYMELSSLRSEDTAVYYCVRSGREFDYWGQGTLVTVSSASTKGPSVFPLAPSSKSTSGGTAALGCLVKDYFPEPVTVSWNSGALTSGVHTFPAVLQSSGLYSLSSVVTVPSSSLGTQTYICNVNHKPSNTKVDKKVEPKSCDKTHTCPPCPAPELLGGPSVFLFPPKPKDVLMISRTPEVTCVVVDVSHEEPEVKFNWYVDGVEVHNAKTKPREEQYNATYRVVSVLPVLHQDWLNGKEYKCKVSNDALPAPEEETISKAKGQPREPQVYTLPPSRCELTKNQVSLSCAVKGFYPSDIAVEWESNGQPENNYKTTPPVLDSDGSFFLVSKLTVDKSRWQQGNVFSCSVMHEALHNHYTQKSLSLSP
# light: B1 light
# notes: Anti-human Epiregulin IgG1 with heterodimeric (knobs-into-holes) Fc variant
# B4: EGL-GASDIE (H240-Kn037/L73-k0//H240-H1036/L73-k0) (antibody, human IgG1, kappa)
# heavy 1: B2 heavy 1 with G235A, L329A
# heavy 2: B2 heavy 1 with G235A, L329A, C348Y, D355C, W365S, L367A, Y406V
# light: B1 light
# notes: Anti-human Epiregulin IgG1 with G236A/S239D/I332E in both CH2 domains and knobs-into-holes in CH3
# B5: EGL-GASDALIE (H240-GASDALIE/L73-k0) (antibody, human IgG1, kappa)
# heavy: B2 heavy 1 with G235A, C348Y, W365T
# light: B1 light
# notes: Anti-human Epiregulin IgG1 with symmetric G236A/S239D/A330L/I332E
# B6: EGL-ART1 (H240-Kn125/L73-k0//H240-H1076/L73-k0) (antibody, human IgG1, kappa)
# heavy 1: B2 heavy 1 with L233Y, L234Q, G235W, D238M, H267D, D269E, S297A, L329A, E331I
# heavy 2: B3 heavy 2 with V249T, A297S, P306T, A329M, E331I
# light: B1 light
# notes: Anti-human Epiregulin IgG1 with heterodimeric (knobs-into-holes) Fc variant; also called Kn125/H1076
# B7: EGL-ART5 (H240-Kn462/L73-k0//H240-HI441/L73-k0) (antibody, human IgG1, kappa)
# heavy 1: QDQLVQSGAEVKKPGASVKVSCKASGFNIKDTYIQWVRQAPGQGLEWMGRIDPLRKQTKYREKFEGRVTITADTSTNTAYMELSSLRSEDTAVYYCVRSGREFDYWGQGTLVTVSSASTKGPSVFPLAPSSKSTSGGTAALGCLVKDYFPEPVTVSWNSGALTSGVHTFPAVLQSSGLYSLSSVVTVPSSSLGTQTYICNVNHKPSNTKVDKKVEPKSCDKTHTCPPCPAPEFQWGPMVFLFPPKPKDVLMISRTPEVTCVVVDVSDEEPEVKFNWYVDGVEVHNAKTKPREEQYNATYRVVSVLPVLHQDWLNGKEYKCKVSNDALPAPIEKTISKAKGQPREPQVCTLPPSRDELTKNQVSLWCLVKGFYPSDIAVEWESNGQPENNYKTTPPVLDSDGSFFLYSKLTVDKSRWQQGNVFSCSVMHEALHNHYTQKSLSLSP
# heavy 2: B3 heavy 2 with G235A, E331I
# light: B1 light
# notes: as for B3
# B8: EGL-ART2 (H240-Kn120/L73-k0//H240-H1068/L73-k0) (antibody, human IgG1, kappa)
# heavy 1: B7 heavy 1 with F233Y, Q234Y, V249T, E269D, P306T, D325K, A326D
# heavy 2: B3 heavy 2 with V249T, A297S, P306T, A329K, E331I
# light: B1 light
# notes: Anti-human Epiregulin IgG1 with heterodimeric (knobs-into-holes) Fc variant; also called Kn120/H1068
# B9: EGL-ART8 (H240-Kn461/L73-k0//H240-HI443/L73-k0) (antibody, human IgG1, kappa)
# heavy 1: B7 heavy 1 with I331E
# heavy 2: B3 heavy 2 with G235A
# light: B1 light
# notes: as for B3
# Legend:
# [1] = target: T1, human FcγRIIa H (allotype H131) extracellular domain (human, UniProt P12318 34-217); assay: SPR Biacore 8K+; KD for FcγRIIb divided by KD for this FcγR
# T1 construct: extracellular domain; also called hFcγRIIaH
# T1 sequence (looked up): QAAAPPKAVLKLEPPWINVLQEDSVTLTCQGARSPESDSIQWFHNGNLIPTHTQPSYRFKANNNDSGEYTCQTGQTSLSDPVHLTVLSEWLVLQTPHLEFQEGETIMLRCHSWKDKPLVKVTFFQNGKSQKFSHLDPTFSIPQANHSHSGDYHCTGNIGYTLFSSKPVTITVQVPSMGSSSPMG
# Procedure: (§1) The extracellular domains of FcγRs were produced by the method described in WO2014104165. The interaction between the produced antibodies and human FcγRs was analyzed using Biacore 8K+by the method below. For the running buffer, 50 mM Na-Phosphate, 150 mM NaCl, and 0.05% Tween20 (pH 7.4) was used, and measurement was performed at 25° C. The sensor chip used was a Series S SA chip (GE Healthcare) onto which CaptureSelect Human Fab-kappa Kinetics Biotin Conjugate (Thermo Fisher Scientific) was immobilized. An antibody of interest was captured onto this chip, and each FcγR diluted with the running buffer was allowed to interact with it. The chip was regenerated using 10 mM Glycine-HCl (pH 1.5), and repeatedly used to capture antibodies and perform measurement. The dissociation constants KD (mol/L) of each antibody for FcγRs were calculated using Biacore Insight Evaluation Software, with a steady state affinity model for the dissociation constant for FcγRIIb and a 1:1 Langmuir binding model for the dissociation constants for the other FcγRs (Table 2).
# [2] = target: T2, human FcγRIIIa V (allotype V158) extracellular domain (human, UniProt P08637 17-208); assay: SPR Biacore 8K+; KD of G1d divided by KD of this antibody
# T2 construct: extracellular domain; also called hFcγRIIIaV
# Procedure: as §1
# [3] = target: T3, human FcγRIIIa F (allotype F158) extracellular domain (human, UniProt P08637 17-208); assay: SPR Biacore 8K+, 25 C, antibody captured, FcγR as analyte, 1:1 Langmuir model
# T3 construct: extracellular domain; also called hFcγRIIIaF
# Procedure: as §1
# [4] = target: T3, human FcγRIIIa F (allotype F158) …; assay: SPR Biacore 8K+; KD of G1d divided by KD of this antibody
# Procedure: as §1
# [5] = target: T4, human FcγRIIb extracellular domain (human, UniProt P31994 43-217); assay: SPR Biacore 8K+, 25 C, antibody captured, FcγR as analyte, steady state affinity model
# T4 construct: extracellular domain; also called hFcγRIIb
# T4 sequence (looked up): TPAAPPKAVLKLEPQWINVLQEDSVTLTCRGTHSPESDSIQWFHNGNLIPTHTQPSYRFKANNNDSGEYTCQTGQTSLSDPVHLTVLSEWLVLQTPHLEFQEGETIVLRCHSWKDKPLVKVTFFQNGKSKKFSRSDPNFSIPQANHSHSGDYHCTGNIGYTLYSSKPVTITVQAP
# Procedure: as §1
# [6] = target: T1, human FcγRIIa H (allotype H131) …; assay: SPR Biacore 8K+, 25 C, antibody captured, FcγR as analyte, 1:1 Langmuir model
# Procedure: as §1
# [7] = target: T3, human FcγRIIIa F (allotype F158) …; assay: SPR Biacore 8K+; KD for FcγRIIb divided by KD for this FcγR
# Procedure: as §1
# T2 sequence (P08637 17-208 F176V): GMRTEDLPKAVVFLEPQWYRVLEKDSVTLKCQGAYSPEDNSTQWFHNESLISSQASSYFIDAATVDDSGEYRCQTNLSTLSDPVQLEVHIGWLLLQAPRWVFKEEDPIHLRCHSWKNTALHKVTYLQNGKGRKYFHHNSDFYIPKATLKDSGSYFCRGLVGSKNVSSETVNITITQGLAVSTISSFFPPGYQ
# T3 sequence (P08637 17-208): as the sequence (P08637 17-208 F176V) above, with V160F counted along it
binder,measurement,setting,value
B1,A/I ratio (KD for FcγRIIb divided by KD for each FcγR),[1],6.9
B2,Relative value to KD between G1d and hFcγRs,[2],36.6 times
same,Kd,[3],26.5 nM
B3,Relative value to KD between G1d and hFcγRs,[4],1270 times
B4,Kd,[5],12.5 nM
B5,Kd,[6],152 nM
B6,Relative value to KD between G1d and hFcγRs,[2],323 times
B7,A/I ratio (KD for FcγRIIb divided by KD for each FcγR),[7],387
B8,A/I ratio (KD for FcγRIIb divided by KD for each FcγR),[7],58.4
B9,Relative value to KD between G1d and hFcγRs,[2],685 times
